Results as given in patent US20240352434, “COMPOSITIONS COMPRISING A VARIANT CAS12I3 POLYPEPTIDE AND USES THEREOF” (Arbor Biotechnologies, Inc., published 2024).

B1: AAVS1_T3 crRNA ; AAVS1_T3 target (ssRNA ; dsDNA)
RNA: AUAGUGUGUCCUUAGUUGACAUGUGAGAAUGGUGCGUCCUAG
DNA 1: GTGAGAATGGTGCGTCCTAG
DNA 2: CTAGGACGCACCATTCTCAC
B2: VEGFA_T2 crRNA ; VEGFA_T2 target (ssRNA ; dsDNA)
RNA: AUAGUGUGUCCUUAGUUGACAUAAUCCUCCACCAGUCAUGGU
DNA 1: AATCCTCCACCAGTCATGGT
DNA 2: ACCATGACTGGTGGAGGATT
B3: EMX1_T5 crRNA ; EMX1_T5 target (ssRNA ; dsDNA)
RNA: AUAGUGUGUCCUUAGUUGACAUUAUUAUUCCCAUAGGGAAGG
DNA 1: TATTATTCCCATAGGGAAGG
DNA 2: CCTTCCCTATGGGAATAATA

How the values were obtained:
[1] = biological target: T1, Cas12i3 T977R (Unidentified, T977R); assay: cell_activity; fold change in % indels, HEK293T; PAM not stated in example
T1 chain: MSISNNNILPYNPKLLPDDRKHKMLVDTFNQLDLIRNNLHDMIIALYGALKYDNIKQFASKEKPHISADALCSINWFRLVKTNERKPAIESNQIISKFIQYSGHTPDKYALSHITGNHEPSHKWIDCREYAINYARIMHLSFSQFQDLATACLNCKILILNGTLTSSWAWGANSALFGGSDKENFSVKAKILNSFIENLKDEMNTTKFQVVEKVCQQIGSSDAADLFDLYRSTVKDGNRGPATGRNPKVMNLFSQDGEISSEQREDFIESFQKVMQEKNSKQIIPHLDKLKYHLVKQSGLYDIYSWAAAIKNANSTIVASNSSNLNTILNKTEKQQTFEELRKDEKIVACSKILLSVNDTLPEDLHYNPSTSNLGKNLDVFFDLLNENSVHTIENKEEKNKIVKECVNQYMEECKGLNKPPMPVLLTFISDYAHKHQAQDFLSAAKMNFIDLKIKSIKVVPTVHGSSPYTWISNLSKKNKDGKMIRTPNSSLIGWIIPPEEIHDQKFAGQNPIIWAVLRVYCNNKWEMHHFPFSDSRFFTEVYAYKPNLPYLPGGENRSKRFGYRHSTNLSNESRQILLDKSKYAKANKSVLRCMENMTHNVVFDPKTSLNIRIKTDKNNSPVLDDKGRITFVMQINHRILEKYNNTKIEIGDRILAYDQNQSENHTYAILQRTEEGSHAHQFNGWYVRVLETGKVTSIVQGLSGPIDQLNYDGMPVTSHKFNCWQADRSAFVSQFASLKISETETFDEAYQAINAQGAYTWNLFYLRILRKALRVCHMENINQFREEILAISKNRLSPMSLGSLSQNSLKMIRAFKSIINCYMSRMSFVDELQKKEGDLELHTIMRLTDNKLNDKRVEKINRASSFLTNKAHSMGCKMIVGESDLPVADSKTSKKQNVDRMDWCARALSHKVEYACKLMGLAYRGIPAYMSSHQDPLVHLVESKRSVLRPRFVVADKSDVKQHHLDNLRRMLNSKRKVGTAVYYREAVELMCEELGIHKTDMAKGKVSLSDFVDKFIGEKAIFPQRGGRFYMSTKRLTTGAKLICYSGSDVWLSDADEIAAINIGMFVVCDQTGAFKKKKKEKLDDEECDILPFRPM
Procedure: (§1) Approximately 16 hours prior to transfection, 100 μl of 25,000 HEK293T cells in DMEM/10% FBS+Pen/Strep were plated into each well of a 96-well plate. On the day of transfection, the cells were 70-90% confluent. For each well to be transfected, a mixture of 0.5 μl of Lipofectamine 2000 and 9.5 μl of Opti-MEM was prepared and then incubated at room temperature for 5-20 minutes (Solution 1). […] In the case of negative controls, the crRNA was not included in Solution 2. The solution 1 and solution 2 mixtures were mixed by pipetting up and down and then incubated at room temperature for 25 minutes. Following incubation, 20 μL of the Solution 1 and Solution 2 mixture were added dropwise to each well of a 96 well plate containing the cells. 72 hours post transfection, cells are trypsinized by adding 10 μL of TrypLE to the center of each well and incubated for approximately 5 minutes. 100 μL of D10 media was then added to each well and mixed to resuspend cells. The cells were then spun down at 500 g for 10 minutes, and the supernatant was discarded. QuickExtract buffer was added to ⅕ the amount of the original cell suspension volume. Cells were incubated at 65° C. for 15 minutes, 68° C. for 15 minutes, and 98° C. for 10 minutes.
(§2) Samples for Next Generation Sequencing were prepared by two rounds of PCR. The first round (PCR1) was used to amplify specific genomic regions depending on the target. PCR1 products were purified by column purification. Round 2 PCR (PCR2) was done to add Illumina adapters and indexes. Reactions were then pooled and purified by column purification. Sequencing runs were done with a 150 cycle NextSeq v2.5 mid or high output kit.

[2] = biological target: T2, Cas12i3 R565G (Unidentified, R565G); assay: as above
T2 chain: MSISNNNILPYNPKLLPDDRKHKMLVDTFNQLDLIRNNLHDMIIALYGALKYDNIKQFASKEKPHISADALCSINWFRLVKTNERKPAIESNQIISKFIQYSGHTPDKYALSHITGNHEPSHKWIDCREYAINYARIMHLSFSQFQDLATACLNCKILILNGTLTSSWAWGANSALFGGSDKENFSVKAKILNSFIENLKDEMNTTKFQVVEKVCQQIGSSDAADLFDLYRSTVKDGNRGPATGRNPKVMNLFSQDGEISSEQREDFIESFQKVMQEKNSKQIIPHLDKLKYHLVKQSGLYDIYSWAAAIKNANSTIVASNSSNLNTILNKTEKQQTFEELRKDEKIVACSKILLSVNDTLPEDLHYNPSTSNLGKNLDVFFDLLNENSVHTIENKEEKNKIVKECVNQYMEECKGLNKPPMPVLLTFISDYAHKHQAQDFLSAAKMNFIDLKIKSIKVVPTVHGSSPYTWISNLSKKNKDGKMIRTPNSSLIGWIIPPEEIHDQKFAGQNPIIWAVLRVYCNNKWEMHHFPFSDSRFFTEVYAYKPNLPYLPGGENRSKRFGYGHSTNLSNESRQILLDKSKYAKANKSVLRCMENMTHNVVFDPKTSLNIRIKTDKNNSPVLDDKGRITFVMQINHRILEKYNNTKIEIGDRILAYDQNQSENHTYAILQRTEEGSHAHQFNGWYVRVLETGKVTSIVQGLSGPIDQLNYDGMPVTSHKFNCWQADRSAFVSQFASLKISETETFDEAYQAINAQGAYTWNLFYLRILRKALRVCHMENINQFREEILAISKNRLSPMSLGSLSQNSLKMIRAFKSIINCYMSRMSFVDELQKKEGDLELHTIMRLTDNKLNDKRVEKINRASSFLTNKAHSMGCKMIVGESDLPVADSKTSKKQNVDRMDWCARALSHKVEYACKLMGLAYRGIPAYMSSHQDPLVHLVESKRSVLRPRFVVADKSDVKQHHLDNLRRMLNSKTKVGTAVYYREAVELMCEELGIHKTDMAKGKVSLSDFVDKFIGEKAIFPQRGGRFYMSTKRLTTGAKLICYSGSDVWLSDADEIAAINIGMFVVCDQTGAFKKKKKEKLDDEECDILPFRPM
Procedure: as §1, §2

Row | Binder | binding signal [1] | binding signal [2]
1 | B1 | 2.37 fold of wild-type | 1.86 fold of wild-type
2 | B2 | 1.35 fold of wild-type | 0.73 fold of wild-type
3 | B3 | 1.04 fold of wild-type | 1.21 fold of wild-type
